The results in this text go back to patent EP4725970A1.

The term Kd denotes the equilibrium constant for the complex coming apart. As a reminder, the koff is a measure of how fast the partners let go of each other. A word on the kon: it is a measure of how fast the partners come together. A high value points to fast association.

Chain of human BCMA-His (human) (Q02223 1-54): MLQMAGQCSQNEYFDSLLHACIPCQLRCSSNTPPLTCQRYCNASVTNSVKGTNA
Chain of JNJ-BCMA/CD3 (Teclistamab) (bispecific antibody) (heavy): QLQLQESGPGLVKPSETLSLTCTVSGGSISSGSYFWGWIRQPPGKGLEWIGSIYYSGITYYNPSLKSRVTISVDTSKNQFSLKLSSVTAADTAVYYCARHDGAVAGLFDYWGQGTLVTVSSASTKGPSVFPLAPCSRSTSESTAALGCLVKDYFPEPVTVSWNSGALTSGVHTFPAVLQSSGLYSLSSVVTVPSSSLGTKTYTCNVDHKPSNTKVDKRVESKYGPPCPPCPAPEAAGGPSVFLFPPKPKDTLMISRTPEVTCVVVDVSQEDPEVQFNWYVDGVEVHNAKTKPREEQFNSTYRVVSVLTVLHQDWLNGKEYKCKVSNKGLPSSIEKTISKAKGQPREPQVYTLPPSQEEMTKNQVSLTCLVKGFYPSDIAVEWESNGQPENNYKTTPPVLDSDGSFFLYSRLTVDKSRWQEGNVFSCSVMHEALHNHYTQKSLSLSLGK
Chain of JNJ-BCMA/CD3 (Teclistamab) (bispecific antibody) (light): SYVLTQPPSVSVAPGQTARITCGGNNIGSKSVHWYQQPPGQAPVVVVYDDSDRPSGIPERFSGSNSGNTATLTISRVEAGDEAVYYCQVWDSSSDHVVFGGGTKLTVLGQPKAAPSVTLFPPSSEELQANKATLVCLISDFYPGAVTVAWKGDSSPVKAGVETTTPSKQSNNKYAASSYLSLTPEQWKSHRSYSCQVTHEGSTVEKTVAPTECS
Chain of JNJ-BCMA/CD3 (Teclistamab) (bispecific antibody) (heavy): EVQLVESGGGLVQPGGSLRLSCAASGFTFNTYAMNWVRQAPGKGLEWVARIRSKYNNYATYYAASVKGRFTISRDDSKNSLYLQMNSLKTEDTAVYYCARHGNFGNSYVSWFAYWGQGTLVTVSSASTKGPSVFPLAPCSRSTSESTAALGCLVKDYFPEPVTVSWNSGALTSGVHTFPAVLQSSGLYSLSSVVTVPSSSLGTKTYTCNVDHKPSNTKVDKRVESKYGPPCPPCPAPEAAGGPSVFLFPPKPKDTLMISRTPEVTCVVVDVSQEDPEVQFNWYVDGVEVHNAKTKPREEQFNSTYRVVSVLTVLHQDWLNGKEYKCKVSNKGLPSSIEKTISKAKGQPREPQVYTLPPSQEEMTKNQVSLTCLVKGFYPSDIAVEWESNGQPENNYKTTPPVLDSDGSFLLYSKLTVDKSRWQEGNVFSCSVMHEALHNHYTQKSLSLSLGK
Chain of JNJ-BCMA/CD3 (Teclistamab) (bispecific antibody) (light): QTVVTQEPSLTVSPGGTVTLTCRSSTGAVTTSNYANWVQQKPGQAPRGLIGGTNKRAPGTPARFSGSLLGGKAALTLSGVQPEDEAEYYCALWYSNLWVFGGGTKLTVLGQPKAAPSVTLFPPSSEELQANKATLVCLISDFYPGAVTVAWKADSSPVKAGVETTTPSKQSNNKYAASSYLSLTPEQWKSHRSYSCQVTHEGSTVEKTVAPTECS
Chain of REGN-BCMA/CD3 (REGN5458) (bispecific antibody) (VH): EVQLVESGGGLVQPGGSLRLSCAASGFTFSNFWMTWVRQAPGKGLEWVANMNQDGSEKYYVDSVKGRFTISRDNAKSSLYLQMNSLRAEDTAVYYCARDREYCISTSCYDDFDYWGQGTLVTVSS
Chain of REGN-BCMA/CD3 (REGN5458) (bispecific antibody) (VL): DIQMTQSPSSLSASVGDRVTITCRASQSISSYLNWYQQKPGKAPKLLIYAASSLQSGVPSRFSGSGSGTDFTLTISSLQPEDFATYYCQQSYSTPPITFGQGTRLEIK
Chain of REGN-BCMA/CD3 (REGN5458) (bispecific antibody) (chain): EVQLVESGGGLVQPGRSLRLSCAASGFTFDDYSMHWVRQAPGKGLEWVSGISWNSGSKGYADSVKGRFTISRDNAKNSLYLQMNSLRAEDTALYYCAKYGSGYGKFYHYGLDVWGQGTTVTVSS

This experiment addresses human BCMA-His (human) (UniProt Q02223). The experiment in a line: BLI (Octet), 1:1 fit.
Substance “JNJ-BCMA/CD3 (Teclistamab) (bispecific antibody)” showed a dissociation constant (Kd) of 0.435 nM, a dissociation rate constant (koff) of 0.000722 s⁻¹ and a kon of 1.66e+06 M⁻¹ s⁻¹.
For “REGN-BCMA/CD3 (REGN5458) (bispecific antibody)” the same measures were 1.13 nM, 0.000792 s⁻¹ and 701000 M⁻¹ s⁻¹.
For “Roche-BCMA/CD3 (Alnuctamab) (bispecific antibody)” the same measures were 0.205 nM, 0.000262 s⁻¹ and 1.28e+06 M⁻¹ s⁻¹.
